Substitutions are numbered along the chain they refer to.
Legend:
[1] = target: T1, human ROR1 on cells (human, UniProt Q01973 30-937); test: flow cytometry on MDA-MB-231 cells, MFI
T1 construct: whole, on cells; the cell line is named under assay; also called CHO-ROR1; CHOK1-ROR1

[2] = target: T2, recombinant human ROR1-ECD protein (human, UniProt Q01973 30-406); test: competition ELISA: biotinylated ROR1-ECD pre-mixed with the row's antibody; competitor coated on the plate: ROR1-Tab2
T2 construct: also called human ROR1 extracellular domain
T2 sequence (Q01973 30-406): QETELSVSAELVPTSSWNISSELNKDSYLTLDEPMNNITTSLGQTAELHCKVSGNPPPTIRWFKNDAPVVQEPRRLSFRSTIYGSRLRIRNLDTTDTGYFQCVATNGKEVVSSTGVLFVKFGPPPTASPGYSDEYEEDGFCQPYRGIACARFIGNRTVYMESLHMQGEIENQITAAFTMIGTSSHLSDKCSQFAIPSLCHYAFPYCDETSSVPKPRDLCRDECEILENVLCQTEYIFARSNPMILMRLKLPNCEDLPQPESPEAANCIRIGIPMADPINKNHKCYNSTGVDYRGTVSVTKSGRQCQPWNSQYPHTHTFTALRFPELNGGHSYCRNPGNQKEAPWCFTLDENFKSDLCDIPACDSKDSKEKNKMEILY
Description: (§1) The binding epitope of ROR1 antibodies were identified with a competition ELISA. Briefly, 96 well plates were coated with 1 ug/mL purified antibodies and incubated overnight at 4° C. After washing with PBS containing 0.05% Tween 20, plates were blocked with blocking buffer (PBS containing 0.05% Tween 20 and 2% BSA) at 37° C. for 2 hours. Biotinylated human ROR1-ECD protein pre-mixed with ROR1 antibody (sample) or irrelevant mouse IgG (baseline) was added into plate wells and incubated at 37° C. for 1 hour before being washed 3 times. Streptavidin-HRP (1:5000 dilution) was then added into each well and incubated at 37° C. for 1 hour before being washed another 3 times. Tetramethylbenzidine (TMB) chromogenic solution was added for color development for 5 minutes then the reaction was stopped with 1M HCl. Absorbance at 450 nm (OD₄₅₀) was measured on a microplate reader. The OD450baseline represents the level of human ROR1-ECD binding to ROR1 antibodies at absence of competition, while the difference between OD450baseline and OD450ₛₐₘₚₗₑ reflects the competition between the ROR1 antibody coated on plate and the antibody in solution. The inhibition percentage was calculated by following equation: […]

[3] = target: T2, recombinant human ROR1-ECD protein; test: competition ELISA: biotinylated ROR1-ECD pre-mixed with the row's antibody; competitor coated on the plate: ROR1-Tab1
Description: as §1

[4] = target: T1, human ROR1 on cells; test: flow cytometry on RPMI-8226 myeloma cells
Description: (§2) Cell binding activity of anti-ROR1 antibodies were measured with human ROR1 transfected CHO cell line (CHO-ROR1) and ROR1-expressing myeloma cell line (RPMI8226). Briefly, 5×10⁵ cells were seeded into each well of a 96-well plate. Cells were centrifuged at 400 g for 5 minutes and supernatants were discarded. For each well, 100 μl of serially diluted antibodies were then added and mixed with the cells. After 40 minutes incubation at 4° C., plates were washed several times to remove excess antibodies. Secondary fluorochrome-conjugated goat anti-mouse IgG antibody was then added and incubated with cells at room temperature for 20 minutes. After another round of centrifugation and a washing step, cells were resuspended in FACS buffer for reading on a CytoFLEX Flow Cytometer (Beckman Coulter). Median Fluorescence Intensity (MFI) readouts were plotted against antibody concentration and analyzed with GraphPad Prism 6.0 software. The results shown in FIGS. 2A-B illustrate the binding activities of anti-ROR1 monoclonal antibodies ROR1-mAb004 and ROR1-Tab1 to ROR1 expressing cells. An irrelevant mIgG1 was used as negative control.

[5] = target: T1, human ROR1 on cells; test: flow cytometry on human ROR1 transfected CHO cells (CHOK1-ROR1)
Description: as §2

[6] = target: T2, recombinant human ROR1-ECD protein; test: ELISA, ROR1-ECD coated at 1 ug/mL
Description: The binding specificity and potency of anti-ROR1 antibodies were characterized by protein ELISA and flow cytometry analysis of cell surface binding. Briefly, binding properties of the anti-ROR1 antibodies were measured with ELISA as follows: recombinant ROR1-ECD protein was coated at 1 μg/mL on 96-well plates at 4° C. overnight. Plates were washed once with washing buffer (PBS containing 0.05% Tween 20) and blocked with ELISA blocking buffer (1% BSA in PBS containing 0.05% Tween 20) at room temperature for 2 hours. Anti-ROR1 antibodies were then added and incubated at 37° C. for 1 hour. Plates were washed three times with washing buffer. HRP labeled anti-mouse IgG secondary antibody (Sigma, Cat. #A0168) was added and the plates were incubated at 37° C. for 30 minutes then washed 5 times in washing buffer. 100 μl of tetramethylbenzidine (TMB) chromogenic solution was added to each well. Following color development, the reaction was stopped with 1 Normal HCl and absorbance at 450 nm was measured on a Varioskan™ LUX microplate reader (ThermoFisher Scientific). Binding signals were plotted against antibody concentration with GraphPad Prism 6.0 software and EC50s were calculated accordingly.

[7] = target: T2, recombinant human ROR1-ECD protein; test: BLI (Octet RED96), antibody captured on anti-mouse IgG Fc sensors, ROR1-ECD in solution, 25 C, 1:1 fit
Description: Briefly, Anti-Mouse IgG Fc Capture (AMC) Biosensors were used to capture purified anti-ROR1 antibodies. Sensors were then dipped into solutions containing recombinant human ROR1-ECD protein to detect target protein binding to the captured antibodies. Kinetics constants were determined by processing and fitting data to a 1:1 binding model using Fortebio analysis software. Shown below in Table 2 are the results obtained for ROR1-mAb004 in comparison with two previously described anti-ROR1 monoclonal antibodies, ROR1-Tab1 is clone R12 as described in WO2014167022, and ROR1-Tab2 is clone D10 as described in WO2012097313.

[8] = target: T2, recombinant human ROR1-ECD protein; test: competition ELISA: biotinylated ROR1-ECD pre-mixed with the row's antibody; competitor coated on the plate: ROR1-mAb004
Description: as §1

[9] = target: T3, human CD3 on cells (human, UniProt P07766 23-207; P04234 22-171; P09693 23-182; P20963 22-164); test: flow cytometry on CHO-CD3-TCR cells, MFI
T3 construct: the cell line is named under assay; also called human TCR/CD3 complex; CHO-CD3-TCR
T3 sequence (P07766 23-207 limits assumed, chain 1 of 4): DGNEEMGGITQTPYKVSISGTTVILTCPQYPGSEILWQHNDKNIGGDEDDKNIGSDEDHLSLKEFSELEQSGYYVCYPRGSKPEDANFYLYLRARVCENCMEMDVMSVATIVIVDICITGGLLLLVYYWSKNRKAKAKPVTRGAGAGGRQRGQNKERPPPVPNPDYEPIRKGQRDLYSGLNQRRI
T3 sequence (P04234 22-171 limits assumed, chain 2 of 4): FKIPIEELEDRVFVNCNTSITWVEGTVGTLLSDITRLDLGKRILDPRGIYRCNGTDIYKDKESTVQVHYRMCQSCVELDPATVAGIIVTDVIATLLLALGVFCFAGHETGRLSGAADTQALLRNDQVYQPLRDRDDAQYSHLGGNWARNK
T3 sequence (P09693 23-182 limits assumed, chain 3 of 4): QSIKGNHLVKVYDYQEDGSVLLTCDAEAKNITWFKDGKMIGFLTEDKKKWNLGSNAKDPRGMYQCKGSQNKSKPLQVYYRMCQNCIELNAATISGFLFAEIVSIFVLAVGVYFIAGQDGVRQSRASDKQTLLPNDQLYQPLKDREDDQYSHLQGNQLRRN
T3 sequence (P20963 22-164 limits assumed, chain 4 of 4): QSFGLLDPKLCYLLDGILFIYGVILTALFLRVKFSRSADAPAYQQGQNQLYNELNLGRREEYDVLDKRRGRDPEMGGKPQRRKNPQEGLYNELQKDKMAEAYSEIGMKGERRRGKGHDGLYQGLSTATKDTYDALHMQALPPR
Description: Briefly, 5×10⁵ cells were seeded into each well of a 96-well plate. Cells were centrifuged at 400 g for 5 minutes and supernatants were discarded. For each well, […] of serially diluted antibodies were then added and mixed with the cells. After 40 minutes of incubation at 4° C., plates were washed several times to remove excess antibodies. Secondary fluorochrome-conjugated goat anti-human IgG antibody was then added and incubated with cells at room temperature for 20 minutes. After another round of centrifugation and a washing step, cells were resuspended in FACS buffer for reading on a CytoFLEX Flow Cytometer (Beckman Coulter). Median Fluorescence Intensity (MFI) readouts were plotted against antibody concentration and analyzed with GraphPad Prism 6.0 software.

T1 sequence (Q01973 30-937): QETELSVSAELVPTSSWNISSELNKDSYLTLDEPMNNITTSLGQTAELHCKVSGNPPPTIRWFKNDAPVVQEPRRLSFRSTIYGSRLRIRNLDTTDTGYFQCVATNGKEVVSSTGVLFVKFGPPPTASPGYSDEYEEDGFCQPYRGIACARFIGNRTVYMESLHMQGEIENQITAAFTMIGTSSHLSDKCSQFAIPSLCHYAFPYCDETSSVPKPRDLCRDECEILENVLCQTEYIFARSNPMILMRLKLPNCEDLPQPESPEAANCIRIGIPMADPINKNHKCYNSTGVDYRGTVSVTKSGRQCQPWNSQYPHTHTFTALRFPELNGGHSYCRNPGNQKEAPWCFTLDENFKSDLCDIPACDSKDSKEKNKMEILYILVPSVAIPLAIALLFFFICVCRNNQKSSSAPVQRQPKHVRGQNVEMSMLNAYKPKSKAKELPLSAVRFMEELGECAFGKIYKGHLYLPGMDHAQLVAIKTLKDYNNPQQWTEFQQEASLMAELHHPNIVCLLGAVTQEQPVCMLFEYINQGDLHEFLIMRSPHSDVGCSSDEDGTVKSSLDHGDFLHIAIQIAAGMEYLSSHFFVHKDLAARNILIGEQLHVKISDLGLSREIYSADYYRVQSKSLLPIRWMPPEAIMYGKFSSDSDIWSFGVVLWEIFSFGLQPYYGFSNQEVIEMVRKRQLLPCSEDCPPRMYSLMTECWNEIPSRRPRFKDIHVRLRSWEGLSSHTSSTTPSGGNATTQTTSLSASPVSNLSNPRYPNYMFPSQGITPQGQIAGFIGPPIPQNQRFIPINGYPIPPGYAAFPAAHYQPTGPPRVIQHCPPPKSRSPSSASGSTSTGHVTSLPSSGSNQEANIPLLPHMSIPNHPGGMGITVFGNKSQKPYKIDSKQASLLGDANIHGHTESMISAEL

B1: R12 x CD3 FIT-Ig (bispecific antibody, human IgG1, kappa, lambda, L234A L235A)
chain 1: not shown
chain 2: QEQLVESGGRLVTPGGSLTLSCKASGFDFSAYYMSWVRQAPGKGLEWIATIYPSSGKTYYATWVNGRFTISSDNAQNTVDLQMNSLTAADRATYFCARDSYADDGALFNIWGPGTLVTISSASTKGPSVFPLAPSSKSTSGGTAALGCLVKDYFPEPVTVSWNSGALTSGVHTFPAVLQSSGLYSLSSVVTVPSSSLGTQTYICNVNHKPSNTKVDKKVEPKSC
chain 3: not shown
[1]
  EC50 (read off the curve): ~0.4 nM

B2: ROR1-Tab1 (antibody, V domains shown)
VH: QEQLVESGGRLVTPGGSLTLSCKASGFDFSAYYMSWVRQAPGKGLEWIATIYPSSGKTYYATWVNGRFTISSDNAQNTVDLQMNSLTAADRATYFCARDSYADDGALFNIWGPGTLVTISS
VL: ELVLTQSPSVSAALGSPAKITCTLSSAHKTDTIDWYQQLQGEAPRYLMQVQSDGSYTKRPGVPDRFSGSSSGADRYLIIPSVQADDEADYYCGADYIGGYVFGGGTQLTVTG
notes: also called clone R12; R12 as described in WO2014167022
[2]
  Inhibition %: -84%
[3]
  Inhibition %: 95%
[4]
  EC50: 0.128 nM
[5]
  EC50: 0.774 nM
[6]
  EC50: 0.025 nM
[7]
  Kd: 1.28 nM
  koff: 0.00066 s⁻¹
  kon: 517000 M⁻¹ s⁻¹
[8]
  Inhibition %: -54%

B3: ROR1-mAb004 (antibody, V domains shown)
VH: QVQLQQSGPELVKPGASVKISCKASGYAFSRSWMNWVKQRPEKGLEWIGRIYPGNGDIKYNGNFKGKATLTADKSSSTAYMQLSSLTSEDSAVYFCAHIYYDFYYALDYWGQGTSVTVSS
VL: DIQLTQSPSSLSASLGGKVTITCKASQDINKYITWYQHKPGKGPRLLIHYTSTLQPGIPSRFSGSGSGRDYSFSISNLEPEDIATYYCLQYDSLLWTFGGGTKLEIK
notes: Mouse hybridoma monoclonal antibody; captured and detected through mouse IgG Fc
[2]
  Inhibition %: 92%
[3]
  Inhibition %: -22%
[4]
  EC50: 0.983 nM
[5]
  EC50: 2.31 nM
[6]
  EC50: 0.022 nM
[7]
  Kd: 18.5 nM
  koff: 0.00171 s⁻¹
  kon: 92500 M⁻¹ s⁻¹
[8]
  Inhibition %: 93%

B4: D10 x CD3 FIT-Ig (bispecific antibody, human IgG1, kappa, L234A L235A)
chain 1: not shown
chain 2: QVQLKESGPGLVAPSQTLSITCTVSGFSLTSYGVHWVRQPPGKGLEWLGVIWAGGFTNYNSALKSRLSISKDNSKSQVLLKMTSLQTDDTAMYYCARRGSSYSMDYWGQGTSVTVSSASTKGPSVFPLAPSSKSTSGGTAALGCLVKDYFPEPVTVSWNSGALTSGVHTFPAVLQSSGLYSLSSVVTVPSSSLGTQTYICNVNHKPSNTKVDKKVEPKSC
chain 3: not shown
[1]
  EC50 (read off the curve): ~0.5 nM

B5: ROR1-Tab2 (antibody, V domains shown)
VH: QVQLKESGPGLVAPSQTLSITCTVSGFSLTSYGVHWVRQPPGKGLEWLGVIWAGGFTNYNSALKSRLSISKDNSKSQVLLKMTSLQTDDTAMYYCARRGSSYSMDYWGQGTSVTVSS
VL: EIVLSQSPAITAASLGQKVTITCSASSNVSYIHWYQQRSGTSPRPWIYEISKLASGVPVRFSGSGSGTSYSLTISSMEAEDAAIYYCQQWNYPLITFGSGTKLEIQ
notes: also called clone D10; D10 as described in WO2012097313
[2]
  Inhibition %: 92%
[3]
  Inhibition %: -21%
[7]
  Kd: 98.8 nM
  koff: 0.0321 s⁻¹
  kon: 325000 M⁻¹ s⁻¹
[8]
  Inhibition %: 56%

B6: HuEM0006-01-24 (antibody, V domains shown)
VH: EVQLVQSGAEVKKPGASVKVSCKASGFSFTNYYVHWMRQAPGQGLEWMGWISPGSDNTKYNEKFKGRVTMTRDTSISTAYMELSRLRSDDTAVYYCARDDYGNYYFDYWGQGTTVTVSS
VL: DIVMTQSPDSLAVSLGERATINCKSSQSLLNARTRKNYLAWYQQKPGQPPKLLIYWASTRESGVPDRFSGSGSGTDFTLTISSLQAEDVAVYYCKQSYILRTFGGGTKVEIK
notes: only the variable domains are tied to it; also called HuEM1006-01-24
[9]
  EC50 (read off the curve): ~0.3 nM

B7: HuEM0006-01-27 (antibody, V domains shown)
VH: B6 VH with M48I, M70L, R72A
VL: B6 VL
notes: only the variable domains are tied to it; also called HuEM1006-01-27
[9]
  EC50 (read off the curve): ~2 nM

Source: patent US20240010753A1 (EPIMAB BIOTHERAPEUTICS HK, published 2024)
